Test results taken from patent publication US10925969B2, “Anti-BCMA polypeptides and proteins” (priority 2015, dated 2021).

Assays:
H929 cells [1] = assay: In vitro sensitivity to abraxane and bortezumib; format: cell-based; conditions: Homo sapiens, NCI-H929
Description: The sensitivity of H929 and U266B cells to abraxane and bortezumib (BTZ) was measured in vitro.

BCMA-positive H929 cells = assay: Cell killing at fixed dose, trypan blue staining after timed exposure; format: cell-based; conditions: H929, 100 ng/ml
Description: Cell killing activity was measured by trypan blue staining of cells taken at various time points (days) after exposure to the immunotoxin.

H929 xenograft tumors = assay: Antitumor activity in mice with H929 xenograft tumors; format: in vivo; conditions: 1.5 mg/kg QODX5, SCID mice
Description: To test the in vivo efficacy of LMB38 and LMB70, tumors were grown in SCID mice using the most sensitive cell line H929. Based on the previous toxicity data, 1.5 mg/kg QODX5 doses were used on 5 mice in each group. […] However, the tumors grew back once the treatment was finished.

H929 cells [2] = assay: Cell viability and cell density at varying LMB70 concentrations; format: cell-based; conditions: 2 hours or 6 hours exposure
Description: H929 cells were exposed to 2, 10, and 100 ng/ml LMB70 for 2 hours or 6 hours. Cell viability and cell density were analyzed.

H929 cells [3] = assay: WST-8 assay of AF647-labeled and unlabeled LMB70; format: cell-based; conditions: in ng/mL
Description: (§1) LMB70 was labeled with AF647 for measurement of uptake in vivo. LMB70 was labeled twice with AF647 using an AF647 labeling kit (Life Technologies). Labeling efficacy and activity were measured by WST-8 assay and affinity measurement.

BCMA = target: T1, BCMA (Homo sapiens, UniProt Q02223); assay: Affinity measurement of AF647-labeled and unlabeled LMB70; format: binding; conditions: after the first labeling
T1 sequence (Q02223 1-184): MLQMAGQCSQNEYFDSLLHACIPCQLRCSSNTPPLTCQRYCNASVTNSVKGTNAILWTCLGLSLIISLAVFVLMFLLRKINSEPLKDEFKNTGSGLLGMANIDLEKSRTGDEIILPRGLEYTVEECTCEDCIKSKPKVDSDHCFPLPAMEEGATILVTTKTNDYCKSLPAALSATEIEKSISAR
Description: as §1

H929 = assay: WST assay of immunotoxin activity; format: cell-based
Description: (§2) The activity of the anti-BCMA immunotoxins against BCMA-expressing cell lines and cells from four multiple myeloma patients was tested by WST assay.

Jeko-1 = assay: WST assay of immunotoxin activity; format: cell-based
Description: as §2

LP-1 = assay: WST assay of immunotoxin activity; format: cell-based
Description: as §2

HUT-102 = assay: WST assay of immunotoxin activity; format: cell-based
Description: as §2

RPMI-8226 = assay: WST assay of immunotoxin activity; format: cell-based
Description: as §2

U266B = assay: WST assay of immunotoxin activity; format: cell-based
Description: as §2

KMS-18 = assay: WST assay of immunotoxin activity; format: cell-based
Description: as §2

JJN-3 = assay: WST assay of immunotoxin activity; format: cell-based
Description: as §2

H929 cells [4] = assay: Cell viability by flow cytometry (Annexin V/7AAD staining) after various exposure durations; format: cell-based; conditions: viability after 3 days
Description: H929 cells were exposed to LMB70 for various durations. Cell viability was analyzed after 3 days by flow cytometry (Annexin V/7AAD staining).
H929 cells were exposed to 2 ng/ml LMB70 for various lengths of time from 10 minutes up to 72 hours. Cell viability was analyzed after 3 days by flow cytometry (Annexin V/7AAD staining).

H929 cells [5] = assay: Cell viability by trypan blue staining after 20 minute exposure; format: cell-based; conditions: 100 ng/ml for 20 minutes
Description: H929 cells were exposed to 100 ng/ml LMB70 for 20 minutes. Cell viability was analyzed with trypan blue staining.

MM-1 cells from patient = assay: WST assay, cells from multiple myeloma patient; format: cell-based, human; conditions: cells from patient MM-1
Description: as §2

MM-2 cells from patient = assay: WST assay, cells from multiple myeloma patient; format: cell-based, human; conditions: cells from patient MM-2
Description: as §2

MM-3 cells from patient = assay: WST assay, cells from multiple myeloma patient; format: cell-based, human; conditions: cells from patient MM-3
Description: as §2

MM-4 cells from patient = assay: WST assay, cells from multiple myeloma patient; format: cell-based, human; conditions: cells from patient MM-4
Description: as §2

## CC(C)C[C@H](NC(=O)[C@H](Cc1ccccc1)NC(=O)c1cnccn1)B(O)O [BTZ, bortezomib]
H929 cells [1]
  IC50: 4 nM

B1: LMB70: anti-BCMA immunotoxin BM306-Fab-LR-GGS (conjugate)
VH: EVQLQQSGPELVKPGASVKISCKTSGYTFTEYTINWVKQSHGKSLEWIGDIYPDNYNIRYNQKFKGKATLTVDKSSSTAYMELRSLSSEDSAIYYCANHDFFVFWGQGTLVTVSA
VL: DIQMTQATSSLSASLGDRVTINCRTSQDISNHLNWYQQKPDGTVKLLIYYTSRLQSGVPSRFSGSGSGTDYSLTISNLEQEDIGTYFCHQGNTLPPTFGGGTKLEIK
modifications: left off: another chain or arm of the molecule; a dimerising Fc or GST; small tags and cut ends
notes: anti-BCMA immunotoxin BM306-Fab-LR-GGS
BCMA-positive H929 cells; 2 hr exposure, D-1
  Percent dead: 43%
BCMA-positive H929 cells; 2 hr exposure, D-2
  Percent dead: 88%
BCMA-positive H929 cells; 2 hr exposure, D-5
  Percent dead: 100%
BCMA-positive H929 cells; 2 hr exposure, D-7
  Percent dead: 100%
BCMA-positive H929 cells; 4 hr exposure, D-1
  Percent dead: 44%
BCMA-positive H929 cells; 4 hr exposure, D-2
  Percent dead: 89%
BCMA-positive H929 cells; 4 hr exposure, D-5
  Percent dead: 100%
BCMA-positive H929 cells; 4 hr exposure, D-7
  Percent dead: 100%
BCMA-positive H929 cells; 6 hr exposure, D-1
  Percent dead: 42%
BCMA-positive H929 cells; 6 hr exposure, D-2
  Percent dead: 88%
BCMA-positive H929 cells; 6 hr exposure, D-5
  Percent dead: 100%
BCMA-positive H929 cells; 6 hr exposure, D-7
  Percent dead: 100%
BCMA-positive H929 cells; 24 hr exposure, D-1
  Percent dead: 51%
BCMA-positive H929 cells; 24 hr exposure, D-2
  Percent dead: 95%
BCMA-positive H929 cells; 24 hr exposure, D-5
  Percent dead: 100%
BCMA-positive H929 cells; 24 hr exposure, D-7
  Percent dead: 100%
H929 xenograft tumors
  tumor growth compared to PBS-treated mice: delayed
  tumors once the treatment was finished: grew back
H929 cells [2]; 2 ng/ml
  effect on cell viability and growth: slight growth inhibition, but no cell killing
H929 cells [2]; 10 ng/ml
  effect on cell viability and growth: not enough to kill all cells
H929 cells [3]; after the first labeling
  IC50 (WST-8): 1.532
H929 cells [3]; after the second labeling
  IC50 (WST-8): 2.758
BCMA
  Bmax (affinity measurement): 2220
H929
  IC50: 0.0011 µg/mL
Jeko-1
  IC50: >0.1 µg/mL
LP-1
  IC50: 0.02 µg/mL
HUT-102
  IC50: >0.1 µg/mL
RPMI-8226
  IC50: 0.0051 µg/mL
U266B
  IC50: 0.005 µg/mL
KMS-18
  IC50: 0.065 µg/mL
JJN-3
  IC50: 0.004 µg/mL
H929 cells [4]; 2 ng/ml, even after 24 hours of exposure
  cell death: did not die
H929 cells [4]; 100 ng/ml
  exposure time sufficient to kill cells: ≤ 10 min
H929 cells [5]
  time after exposure at which cells started to die: 24 h
  time after which all cells were dead: 3 days
MM-1 cells from patient
  IC50: 0.0004 µg/mL
MM-2 cells from patient
  IC50: 0.017 µg/mL
MM-3 cells from patient
  IC50: 0.0023 µg/mL
MM-4 cells from patient
  IC50: 0.0179 µg/mL
